This is an account of results in patent US20190022245A1 (ACADEMIA SINICA, published 2019).

Test [1] deals with T1, human epidermal growth factor receptor (HER2) on cells (human, UniProt P04626 23-1255).
T1 construct: whole, on cells; also called HER2/Neu; Her2/neu
Nature of the test: flow cytometry, 10 µg/ml BsAb, FITC anti-human IgG; also methoxy-PEG Qdot 655 retained at SKBR3 cells. On the technique in general: A flow cytometer gives signals particle by particle.

In test [2] the target is T1, human epidermal growth factor receptor …. Nature of the test: flow cytometry on SKBR3 cells (HER2+), FITC anti-human IgG.
Test [3] shares this target. Nature of the test: flow cytometry on BT-474 cells.
The target is the same in test [4]. The test is described as follows: culture medium on BT-474 cells (HER2 positive), FITC anti-human Ig. On the procedure:
(§1) The binding specificity of monovalent BsAbs with their target proteins was measured by collecting the culture medium of BsAbs producing cells, adding the collected medium to cells that expressed the target protein, then determining the binding by […]. After washing the cells, the bound BsAbs were detected by FITC-labeled goat anti-human immunoglobulin second antibody. […] Thus, monovalent anti-PEG (hE11) BsAbs bound to target cells in an antigen-dependent and selective manner.

Test [5] deals with T2, epidermal growth factor receptor (EGFR) on cells (human (on human cell lines), UniProt P00533 25-1210).
T2 construct: whole, on cells
Nature of the test: culture medium on MDA-MB-468 cells (EGFR positive), FITC anti-human Ig. As to the method:
as §1

Test [6] deals with T2, epidermal growth factor receptor (EGFR) …. The test is described as follows: flow cytometry, BsAb on A431 cells then PEG-liposome Texas Red or PEG-Qdot655. On the procedure: PEG2×TAG72 or control PEG2×DNS BsAbs (10 μg/mL) were incubated with A-375(TAG72-), MCF-7(TAG72+), Jurkat (TAG72+) or OVCAR-3(TAG72+) cells at 4° C. for 30 min followed by FITC-labeled goat anti-human immunoglobulin second antibody (2 μg/m L) (Jackson ImmunoResearch Laboratories, West Grove, Pa.) or FITC-labeled 4arm-PEG (2 μg/mL). Tumor-specific targeting of PEGylated compounds was also examined by staining A431 (EGFR^high), and Raji (CD19^high) cell lines with 10 μg/mL of h6.3Fab×EGFR or h6.3Fab×CD19 BsAbs in PBS containing 0.05% BSA (staining buffer) at 4° C. for 30 min. The cells were washed with cold PBS for 3 times. PEG-Qdot655 (8 nM) (Invitrogen, Grand Island, N.Y.) or PEG-liposomal Texas-Red (100 nm size, 50 μM, lipid conc.) (FormuMax Scientific, Palo Alto, Calif.) in staining buffer was added to cells for 30 min at 4° C. […] After washing with cold PBS, the surface fluorescence of 10⁴ viable cells was measured by FACScaliber flow cytometer (Becton Dickinson, Mountain View, Calif., USA) then analyzed with Flowjo (Tree Star Inc., San Carlos, Calif., USA).
Further, both h6-3Fab×EGFR and h6.3Fab×CD19 BsAbs bound to the NH₂-PEG_{10,000}-NH2, but not to the control BSA protein, indicating their binding specificity toward PEG molecule (FIGS. 14A and 14B). […]

The target in test [7] is T3, BSA (control protein coated on ELISA plates) (UniProt P02769 25-607).
T3 construct: also called control BSA protein
T3 sequence (P02769 25-607 limits assumed): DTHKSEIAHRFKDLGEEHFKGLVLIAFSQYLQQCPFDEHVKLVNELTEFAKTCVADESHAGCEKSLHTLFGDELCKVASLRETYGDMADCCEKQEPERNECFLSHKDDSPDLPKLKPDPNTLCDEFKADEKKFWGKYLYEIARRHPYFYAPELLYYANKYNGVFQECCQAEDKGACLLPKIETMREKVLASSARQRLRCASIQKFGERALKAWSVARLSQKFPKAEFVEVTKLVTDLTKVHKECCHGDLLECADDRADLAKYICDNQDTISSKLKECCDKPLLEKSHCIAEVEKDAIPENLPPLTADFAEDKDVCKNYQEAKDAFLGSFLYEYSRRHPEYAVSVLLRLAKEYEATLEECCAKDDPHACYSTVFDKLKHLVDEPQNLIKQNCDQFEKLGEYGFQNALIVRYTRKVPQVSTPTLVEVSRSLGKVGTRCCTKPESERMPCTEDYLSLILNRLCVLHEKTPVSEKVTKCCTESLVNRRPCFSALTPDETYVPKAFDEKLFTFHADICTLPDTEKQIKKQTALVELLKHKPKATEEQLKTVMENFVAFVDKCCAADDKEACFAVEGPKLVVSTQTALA
The test is described as follows: ELISA, BSA-coated plate, graded concentrations. On the procedure: The anti-PEG binding specificity of BsAbs was measured by adding graded concentrations of PEG2×TAG72,PEG2×DNS, hCC49 scFv, h6.3Fab×EGFR or h6.3Fab×CD19 in 50 μL 2% skim milk to the mucin, BSA-PEG5000, NH₂-PEG₃ₖ-NH₂ or BSA coated plates at RT for 1 h. The plates were washed with PBS-T (PBS containing 0.05% Tween-20) three times. Rabbit anti-6×His (2 μg/mL) supplemented with HRP-conjugated goat anti-rabbit (2 μg/mL) or HRP-conjugated goat Ig anti human IgG Fab (2 μg/mL) (Jackson ImmunoResearch Laboratories, West Grove, Pa.) in 50 μL dilution buffer were added for 1 h at room temperature. The plates were washed with PBS-T (PBS containing 0.05% Tween-20) three times and with PBS two times. Bound peroxidase activity was measured by adding 150 μL/well ABTS substrate solution (BioLegend, San Diego, Calif.) for 30 min at room temperature. The absorbance (405 nm) of wells was measured in a microplate reader (Molecular Device, Menlo Park, Calif.).
Further, both h6-3Fab×EGFR and h6.3Fab×CD19 BsAbs bound to the NH₂-PEG_{10,000}-NH2, but not to the control BSA protein, indicating their binding specificity toward PEG molecule (FIGS. 14A and 14B). […] The PEG-binding kinetics of h6-3Fab×EGFR and h6.3Fab×CD19 BsAbs were verified by Microscale Thermophoresis (MST) (FIGS. 14D and 14E).
In general terms: ELISA stands for enzyme-linked immunosorbent assay.

B1: 15-2b knob/anti-HER2 hole (knob in hole anti-mPEG (h15-2b) anti-HER2 BsAb) (bispecific antibody)
light 1: DIQMTQSPSSLSASVGDRVTITCKASQDVNTSVAWYQQKPGKAPKLLIYWASTRHTGVPSRFSGSGSGTDFTFTISSLQPEDIATYYCLQYINYPYTFGQGTKLEIKRTVAAPSVFIFPPSDEQLKSGTASVVCLLNNFYPREAKVQWKVDNALQSGNSQESVTEQDSKDSTYSLSSTLTLSKADYEKHKLYACEVTHQGLSSPVTKSFNRGEC
heavy 1: not shown
light 2: QSVLTQPPSVSAAPGQKVTISCSGSSSNIGNNYVSWYQQLPGTAPKLLIYDHTNRPAGVPDRFSGSKSGTSASLAISGFRSEDEADYYCASWDYTLSGWVFGGGTKLTVLGSSASTKGPSVFPLAPSSKSTSGGTAALGCLVKDYFPEPVTVSWNSGALTSGVHTFPAVLQSSGLYSLSSVVTVPSSSLGTQTYICNVNHKPSNTKVDKKV
heavy 2: not shown
notes: Four different chains; also called h15-2b-knob/anti-HER2-hole; h15-2b-knob/anti-Her2-hole; not shown: HA tag fused at the N terminal of the hole heavy chain
For B1, in test [1], the binding result is on record as “binds”.

B2: 15-2b knob/Bu12 hole (knob in hole anti-mPEG (h15-2b) anti-CD19 BsAb) (bispecific antibody)
light 1: B1 light 1
heavy 1: not shown
light 2: EIVLTQSPATLSLSPGERATLSCSASSSVSYMHWYQQKPGQAPRLLIYDTSKLASGIPARFSGSGSGTDFTLTISSLEPEDVAVYYCFQGSVYPFTFGQGTKLEIKRSSASTKGPSVFPLAPSSKSTSGGTAALGCLVKDYFPEPVTVSWNSGALTSGVHTFPAVLQSSGLYSLSSVVTVPSSSLGTQTYICNVNHKPSNTKVDKKV
heavy 2: not shown
notes: Four different chains; also called h15-2b-knob/BU12-hole; h15-2b knob+BU12-hole; not shown: HA tag fused at the N terminal of the hole heavy chain
B2: in test [2], the binding result was “no binding (tested: 10 µg/ml)”.

B3: PEG2×HER2 (dimeric humanized anti-PEG (hE11) anti-HER2 BsAb) (bispecific antibody, human IgG1, kappa)
light: DVVMTQSPLSLPVTLGQPASISCRSSKSIVHSNGNTYLEWFQQRPGQSPRRLIYKVSKRMSGVPDRFSGSGSGTDFTLKISRVEAEDVGVYYCSQGSHVPPTFGGGTKVEIKRTVAAPSVFIFPPSDEQLKSGTASVVCLLNNFYPREAKVQWKVDNALQSGNSQESVTEQDSKDSTYSLSSTLTLSKADYEKHKLYACEVTHQGLSSPVTKSFNRGEC
heavy: not shown
notes: also called PEG2×HER2 BsAbs
Take B3: the binding result in test [3] is “binds”.

B4: PEGxTAG72 (monovalent anti-PEG (hE11) Fab fused to anti-TAG72 scFv, example 2.1) (bispecific antibody)
light: B3 light
heavy: QVQLVQSGAEVKKPGASVKVSCKASGYTFTTYTMNWVRQAPGQGLEWMGYIIPSSGYVDYNQKFKGRVTMTRDTSTSTVYMELSSLRSEDTAVYYCVRSLDGYFWFAYWGQGTLVTVSSASTKGPSVFPLAPSSKSTSGGTAALGCLVKDYFPEPVTVSWNSGALTSGVHTFPAVLQSSGLYSLSSVVTVPSSSLGTQTYICNVNHKPSNTKVDKRVVDLVTVSSASTGGGSGQLGGGGSQVQLVQSGAEVKKPGASVKVSCKASGYTFTDHAIHWVRQAPGQCLEWMGYFSPGNDDFKYSQKFQGRVTITADKSASTAYMELSSLRSEDTAVYYCARSWIMQYWGQGTLVTVSSGGGGSGGGGSGGGGSDIVMTQSPDSLAVSLGERATINCKSSQSVLYSSNNKNYLAWYQQKPGQPPKLLIYWASTRESGVPDRFSGSGSGTDFTLTISSLQAEDVAVYYCQQYYSYPLTFGCGTKVEIKTRHHHHHH
notes: Tested as culture medium of producer cells; also called PEG×TAG72; monovalent anti-PEG (hE11) BsAb
With B4, the binding result in test [4] and in test [5] was “no binding” each time.

B5: h6.3 Fab × CD19 (monovalent anti-PEG (h6.3) anti-CD19 BsAb) (bispecific antibody)
light: DIVMTQSPDSLAVSLGERATINCKSSQSVLYSSNQMNYLAWYQQKPGQPPKLLIYWASTRESGVPDRFSGSGSGTDFTLTISSLQAEDVAVYYCLQYLSSWTFGGGTKLEIKTYSLSSTLTLSKADYEKHKLYACEVTHQGLSSPVTKSFNRGEC
heavy: QVQLVQSGSELKKPGASVKVSCKASGYTFKNYGMNWVRQAPGQGLEWMGWINTYTGQPIYANDFKGRFVFSLDTSVSTAYLQISSLKAEDTAVYYCARDWGPYWGQGTLVTVSSASTKGPSVFPLAPSSKSTSGGTAALGCLVKDYFPEPVTVSWNSGALTSGVHTFPAVLQSSGLYSLSSVVTVPSSSLGTQTYICNVNHKPSNTKVDKRVEPKSCDKVDLVTVSSASTGGGSGQLGGGGSQVQLQESGPGLVKPSQTLSLTCTVSGGSISTSGMGVGWIRQHPGKCLEWIGHIWWDDDKRYNPALKSRVTISVDTSKNQFSLKLSSVTAADTAVYYCARMELWSYYFDYWGQGTLVTVSSGGGGSGGGGSGGGGSEIVLTQSPATLSLSPGERATLSCSASSSVSYMHWYQQKPGQAPRLLIYDTSKLASGIPARFSGSGSGTDFTLTISSLEPEDVAVYYCFQGSVYPFTFGCGTKLEIKRTRHHHHHH
notes: Fab-dsFv; also called h6.3-hBU12
On to B5, for which the binding result is on record as “no binding (tested: 10 µg/mL)” in test [6] and “no binding” in test [7].
